Data reported in EP2245064B1 (MEDIMMUNE LIMITED, dated 2014).
Positions count from the first letter of the chain named. Where two headings read alike, the source gives them in different places.

Columns and labels:
[1] = target: antibody used for epitope mapping in Example 5 (not named); assay: HTRF competition vs biotinylated human IL-4Rα/Fc for Eu-cryptate antibody
[2] = target: antibody used for epitope mapping in Example 5 (not named); assay: as above; remark: listed apart in the source
[3] = target: human IL-4Rα on TF-1 cells (human) (UniProt P24394); assay: cell-based or functional assay
[4] = target: T1, human IL4Rα/Fc (R and D Systems 604-4R) (human, UniProt P24394 26-232); assay: HTRF receptor-ligand competition, scFv vs biotinylated human IL4
T1 construct: Bought product; also called human IL4Rα-Fc receptor; IL-4Rα/Fc (R&D systems Cat. No. 604-4R-050)
T1 sequence (looked up): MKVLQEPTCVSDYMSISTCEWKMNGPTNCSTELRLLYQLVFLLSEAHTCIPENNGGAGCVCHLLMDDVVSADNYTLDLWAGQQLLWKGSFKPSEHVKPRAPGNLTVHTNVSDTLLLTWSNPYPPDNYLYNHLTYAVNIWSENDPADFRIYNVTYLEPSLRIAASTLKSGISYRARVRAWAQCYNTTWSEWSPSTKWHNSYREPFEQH

B1: EM19 (receptor)
chain: MKVLQEPTCVSDYMSISTCEWKMNGPTNCSTELRLLYQLMFLEFSENLTCIPENNGGAGCVCHLLMDDVVSADNYTLDLWAGQQLLWKGSFKPSEHVKPRAPGNLTVHTNVSDTLLLTWSNPYPPDNYLYNHLTYAVNIWSENDPADFRIYNVTYLEPSLRIAASTLKSGISYRARVRAWAQCYNTTWSEWSPSTKWHNSYREPFNPAFLYKVVGAADYKDDDDKAAHHHHHHHHHH
Q: How did the IC50 [1] turn out when B1 was run?
A: 4.5 nM

B2: EM22 (receptor)
chain: B1 chain with L42F, N47A
Q: With B2 as the binder, how does the IC50 [1] read?
A: 19 nM

B3: EM21 (receptor)
chain: B1 chain with L42F, F44L
Q: How did the IC50 [1] turn out when B3 was run?
A: 5.7 nM

B4: EM24 (receptor)
chain: B1 chain with M40V, L42F, N47A, L48H
Q: B4 was tested. Which IC50 [1] did it give?
A: 13 nM

B5: MoD1HuD2IL-4Rα (receptor)
chain: IKVLGEPTCFSDYIRTSTCEWFLDSAVDCSSQLCLHYRLMFFEFSENLTCIPRNSASTVCVCHMEMNRPVQSDRYQMELWAEHRQLWQGSFSPSGHVKPRAPGNLTVHTNVSDTLLLTWSNPYPPDNYLYNHLTYAVNIWSENDPADFRIYNVTYLEPSLRIAASTLKSGISYRARVRAWAQCYNTTWSEWSPSTKWHNSYREPFNPAFLYKVVGAADYKDDDDKAAHHHHHHHHHH
Q: For B5, which % inhibition at 1000nM [1] is on record?
A: 34%

B6: MoLoop1HuIL-4Rα (receptor)
chain: MKVLQEPTCVSDYIRTSTCEWKMNGPTNCSTELRLLYQLVFLLSEAHTCIPENNGGAGCVCHLLMDDVVSADNYTLDLWAGQQLLWKGSFKPSEHVKPRAPGNLTVHTNVSDTLLLTWSNPYPPDNYLYNHLTYAVNIWSENDPADFRIYNVTYLEPSLRIAASTLKSGISYRARVRAWAQCYNTTWSEWSPSTKWHNSYREPFNPAFLYKVVGAADYKDDDDKAAHHHHHHHHHH
Q: B6 was tested. Which IC50 [1] did it give?
A: 1.9 nM

B7: MoLoop3HuIL-4Rα (receptor)
chain: B6 chain with I14M, R15S, T16I, L64E, D66N, D67R, V68P, S70Q, A71S, N73R
Q: With B7 as the binder, how does the % inhibition at 1000nM [1] read?
A: 58%

Q: And the % inhibition at 1000nM [2]?
A: 45%

B8: EM25 (receptor)
chain: B6 chain with I14M, R15S, T16I, A46N, H47L
Q: For B8, which IC50 [1] is on record?
A: 0.448 nM

B9: MoLoop5HuIL-4Rα (receptor)
chain: B6 chain with I14M, R15S, T16I, A180S, C182I, Y183L, N184T, T185G
Q: How did the IC50 [1] turn out when B9 was run?
A: 1.4 nM

B10: EM20 (receptor)
chain: B6 chain with I14M, R15S, T16I, V40M, L42F, L43F, A46N, H47L
Q: For B10, which IC50 [1] is on record?
A: 3.8 nM

B11: MoLoop4HuIL-4Rα (receptor)
chain: B6 chain with I14M, R15S, T16I, S119N, P121L, P124S, D125N
Q: For B11, which IC50 [1] is on record?
A: 0.663 nM

B12: Antibody 24 (PGL) IgG (antibody, from another filing, V domains shown)
VH: QVQLVQSGAEVKKPGASVKVSCKASGYAFTSYYMHWVRQAPGQGLEWMGIINPRGGSTSYAQKFQGRVTMTRDTSTSTVYMELSSLRSEDTAVYYCARGKYWMYDWGKGTLVTVSS
VL: QSVLTQPPSVSAAPGQKVTISCSGGSSNIGNSYVSWYQQLPGTAPKLLIYDNNKRPSGIPDRFSGSKSGTSATLGITGLQTGDEADYFCGTWDTSTVWEWPFGTGTKLTVL
Q: B12 was tested. Which IC50, IL-4 induced TF-1 cell proliferation [3] did it give?
A: 0.0153 nM

Q: And the IC50, IL-13 induced TF-1 cell proliferation [3]?
A: 0.055 nM

B13: Antibody 1 scFv (scFv, V domains shown)
VH: B12 VH with V37A, R54S, Y101W, M103L, Y104D, D105Y
VL: B12 VL with G75A, F88Y, T96L, V97S, W98A, E99N, W100Y, P101V
Q: For B13, which Ki [4] is on record?
A: 12 nM
